Assay results: the supplement of paper PMC6757056
± gives the standard deviation of the averaged measurements.

B1: library; a variant is named by its letters at N, in order (parent)
chain: GCUGUCACCGAGAAACUGUGAAGUAUAUCUUAAACCUGGGCACUUAAAAGAUAUAUGGAGUUAGUAGUGCAACCUGCUCGGUCUGAUGAGUCCNNNNNNGGACGAAACAGC

Tests used:
cyclic di-GMP [1] = variants of: B1; experiment: FACS-Seq fitted mean relative fluorescence mCherry/BFP without ligand (log10 relative fluorescence); HEK293T; ligand: cyclic di-GMP (c-di-GMP-II aptamer); higher = higher reporter protein expression; conditions: ligand present: no
Protocol: (§1)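 Hammerhead (sTRSV) ribozyme switch libraries with a ligand aptamer grafted on stem I and a randomized N4-6 loop II, cloned into the 3' UTR of mCherry and transiently transfected into HEK293T cells; RNA-Seq 72 h post transfection with ligand added 1 h before transfection; RNA read count / plasmid DNA read count normalized to the non-cleaving sTRSVctl (x100), log10; sequences with >100 DNA reads. FACS-Seq: lentiviral library sorted into 6 bins after 48 h ligand, log-normal fit mean of mCherry/BFP scaled to controls. Printed sequences are partial switch sequences.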

cyclic di-GMP [2] = variants of: B1; experiment: normalized RNA/DNA level without ligand (relative to sTRSVctl = 100) (log10 (% of sTRSVctl)); HEK293T; ligand: cyclic di-GMP (c-di-GMP-II aptamer); higher = less ribozyme self-cleavage, higher mRNA level; conditions: reporter: mCherry (pCS4076), ligand present: no
Protocol: as §1

cyclic di-GMP [3] = variants of: B1; experiment: FACS-Seq fitted mean relative fluorescence mCherry/BFP with ligand (log10 relative fluorescence); HEK293T; ligand: cyclic di-GMP (c-di-GMP-II aptamer); ligand concentration (+) FACS-Seq: 1 mM; higher = higher reporter protein expression; conditions: ligand present: yes
Protocol: as §1

cyclic di-GMP [4] = variants of: B1; experiment: normalized RNA/DNA level with ligand (relative to sTRSVctl = 100) (log10 (% of sTRSVctl)); HEK293T; ligand: cyclic di-GMP (c-di-GMP-II aptamer); ligand concentration (+) RNA-Seq: 1 mM; higher = less ribozyme self-cleavage, higher mRNA level; conditions: reporter: mCherry (pCS4076), ligand present: yes
Protocol: as §1

Variant | FACS-Seq fitted mean (log10) (cyclic di-GMP [1]) | normalized RNA/DNA level without ligand (log10) (cyclic di-GMP [2]) | FACS-Seq fitted mean (log10) (cyclic di-GMP [3]) | normalized RNA/DNA level with ligand (log10) (cyclic di-GMP [4])
CAAAAA | -0.703 ± 0.047 | 1.21 ± 0.087 | -0.444 ± 0.071 | 1.46 ± 0.079
AAACUG | -0.426 ± 0.0086 | 1.53 ± 0.039 | -0.194 ± 0.0073 | 1.75 ± 0.092
AAACUU | -0.199 ± 0.0094 | 1.646 ± 0.0047 | 0.118 ± 0.0021 | 1.82 ± 0.091
AAACUA | -0.338 ± 0.065 | 1.49 ± 0.031 | -0.0568 ± 0.0064 | 1.65 ± 0.11
AAACUC | -0.854 ± 0.053 | 1.706 ± 0.0065 | -0.744 ± 0.039 | 1.83 ± 0.071
AAAGCU | -0.569 ± 0.092 | 1.63 ± 0.063 | -0.245 ± 0.025 | 1.78 ± 0.099
CAAACA | -0.651 ± 0.025 | 1.34 ± 0.069 | -0.439 ± 0.079 | 1.62 ± 0.11
AAAGAC | -0.0292 ± 0.22 | 1.56 ± 0.036 | 0.33 ± 0.099 | 1.75 ± 0.09
AAAGAU | 0.0924 ± 0.13 | 1.52 ± 0.037 | 0.367 ± 0.016 | 1.71 ± 0.17
GAAGCG | -0.36 ± 0.013 | 1.841 ± 0.018 | -0.268 ± 0.16 | 1.87 ± 0.069
GAAGCA | -0.476 ± 0.078 | 1.8 ± 0.082 | -0.329 ± 0.2 | 1.88 ± 0.15
AAAGGG | -0.506 ± 0.051 | 1.37 ± 0.078 | -0.2804 ± 0.00041 | 1.59 ± 0.077
AAAGGU | -0.701 ± 0.017 | 1.54 ± 0.054 | -0.44 ± 0.065 | 1.71 ± 0.1
AAAGGA | -0.691 ± 0.009 | 1.31 ± 0.13 | -0.5317 ± 0.0025 | 1.47 ± 0.11
UAAACA | 0.0579 ± 0.081 | 1.742 ± 0.0053 | 0.349 ± 0.078 | 1.85 ± 0.079
GAACUA | -0.288 ± 0.19 | 1.6 ± 0.068 | 0.0146 ± 0.12 | 1.77 ± 0.091
